According to publication PMC3480639:

Assays:
H2B:mRFP = H2B:mRFP (UniProt P06899); experiment: FRET or BRET; FLIM-FRET in cells in interphase; GFP fusion as donor, mRFP or dsRed fusion as acceptor; multiphoton excitation at 890 nm; at least 20 cells per condition
[1] = target: Importin β (endogenous, DT40); experiment: TrAP-tag pull-down and mass spectrometry; settings: DT40 cells blocked in mitosis with colcemid, then forced to exit from mitosis by addition of roscovitine; parent: 15
[2] = target: NUP153 (endogenous, DT40); experiment: TrAP-tag pull-down and mass spectrometry; settings: DT40 cells blocked in mitosis with colcemid, then forced to exit from mitosis by addition of roscovitine; parent: 8
NUP50 (endogenous, DT40) = experiment: TrAP-tag pull-down and mass spectrometry; settings: DT40 cells blocked in mitosis with colcemid, then forced to exit from mitosis by addition of roscovitine; parent: 17
PP1 = experiment: TrAP-tag pull-down and mass spectrometry; settings: DT40 cells blocked in mitosis with colcemid, then forced to exit from mitosis by addition of roscovitine; parent: 18
histone H2B = experiment: TrAP-tag pull-down and mass spectrometry; settings: DT40 cells blocked in mitosis with colcemid, then forced to exit from mitosis by addition of roscovitine; parent: 12
histone H3 = experiment: TrAP-tag pull-down and mass spectrometry; settings: DT40 cells blocked in mitosis with colcemid, then forced to exit from mitosis by addition of roscovitine; parent: 17

In the case of “GFP:Repo-Man (from UniProt Q69YH5 1-1023) (natural protein)”, the E FRET (H2B:mRFP) is reported as 22%.

“TrAP:hRepo-Man^WT (from UniProt Q69YH5) RVTF>RAXA (V>A; F>A in the RVTF motif, residue numbers not printed)” gave an other: number of peptides identified by mass spectrometry [1] of 35, an other: number of peptides identified by mass spectrometry [2] of 34 and an other: number of peptides identified by mass spectrometry (NUP50 (endogenous, DT40)) of 17. For the same substance, the other: number of peptides identified by mass spectrometry (PP1) was -0, the other: number of peptides identified by mass spectrometry (histone H2B) was 14 and the other: number of peptides identified by mass spectrometry (histone H3) was 12.
